# Where no end group is shown, it is not given here.
# Experiments:
# Solubility of CXB = type: physicochemical
# [1] = Iso-electric point of CPP peptides (Table 1); type: physicochemical
# Excerpt: Celecoxib (CXB) was provided by Pfizer (Skokie, Ill.). The triglyceride Miglyol 812 was obtained from Sasol Germany GmbH (Witten, Germany) and Compritol 888 ATO was provided by Gattefosse (Saint Priest, France). The phospholipids 1-palmitoyl-2-oleoyl-phosphatidylcholine (POPC), 1,2-dioleoyl-sn-glycero-3-phosphoethanolamine (DOPE) and 1,2-di-(9Z-octadecenoyl)-sn-glycero-3-[(N-(5-amino-1-carboxypentyl)iminodiacetic acid)succinyl] (nickel salt) (DOGS-NTA-Ni) were purchased from Avanti Polar Lipids (USA). Cholesterol, Tween 80, pH 7.4 phosphate buffer saline (PBS), paraformaldehyde, tetrahydrofuran (THF), trifluoro acetic acid (TFA), and dialysis membranes (molecular weight cut off 12,400 daltons and flat width of 23 mm) were procured from Sigma-Aldrich Chemicals (St. Louis, USA). Polyoxyethylene-20 oleyl ether or Volpo-20 (Oleth-20) was a kind gift from Croda Inc (New Jersey, USA). Vivaspin centrifuge filters (molecular weight cut off 10,000 Daltons) was procured from Sartorius Ltd, (Stonehouse, UK). All other chemicals used herein were of analytical grade. All of the CPP peptides were synthesized by GenScript Corporation (NJ, USA). Sce Table 1 below for details of the composition, molecular weight and iso-electric points of the CPPs. Fluorescent Isothiocyanate (FITC), DID-oil and DIO fluorescent dyes were procured from Invitrogen (USA).
Molecule,"solubility (Solubility of CXB; 0.1% w/v Volpo 20 in pH 7.4 PBS, aqueous with cosolvent or surfactant or cyclodextrin, in 0.1% Volpo 20 (receptor fluid, pH 7.4 PBS), read-out: saturation solubility) [µg/mL]",solubility in water (Solubility of CXB; water),Iso-electric point [1]
"Cc1ccc(-c2cc(C(F)(F)F)nn2-c2ccc(S(N)(=O)=O)cc2)cc1 [CXB, Celecoxib]",30,insoluble in water,
RRRRRRRRHHHHHH (synthetically generated peptide) [R8],,,13.2
RRRRRRRRRRRHHHHHH (synthetically generated peptide) [R11],,,13.4
RRRRRRRRRRRRRRRHHHHHH (synthetically generated peptide) [R15],,,13.5
YGRKKRRQRRRHHHHHH [TAT],,,12.7
YKALRISRKLAKHHHHHH (syntheticall generated peptide) [reference compound],,,11.6

# — patent US8715736B2, “Nanoparticle formulations for skin delivery” (Florida Agricultural and Mechanical University, priority 2009, dated 2014)
